Experiment [1] has as its target T1, estrogen receptor α (ERα) (Homo sapiens, UniProt P03372).
T1 construct: The full length estrogen receptor was subcloned in frame into the EcoRI and XhoI sites of pJG4-5; expressed in transfected cells; host or cells: Saccharomyces cerevisiae EGY48
T1 sequence (P03372 1-595): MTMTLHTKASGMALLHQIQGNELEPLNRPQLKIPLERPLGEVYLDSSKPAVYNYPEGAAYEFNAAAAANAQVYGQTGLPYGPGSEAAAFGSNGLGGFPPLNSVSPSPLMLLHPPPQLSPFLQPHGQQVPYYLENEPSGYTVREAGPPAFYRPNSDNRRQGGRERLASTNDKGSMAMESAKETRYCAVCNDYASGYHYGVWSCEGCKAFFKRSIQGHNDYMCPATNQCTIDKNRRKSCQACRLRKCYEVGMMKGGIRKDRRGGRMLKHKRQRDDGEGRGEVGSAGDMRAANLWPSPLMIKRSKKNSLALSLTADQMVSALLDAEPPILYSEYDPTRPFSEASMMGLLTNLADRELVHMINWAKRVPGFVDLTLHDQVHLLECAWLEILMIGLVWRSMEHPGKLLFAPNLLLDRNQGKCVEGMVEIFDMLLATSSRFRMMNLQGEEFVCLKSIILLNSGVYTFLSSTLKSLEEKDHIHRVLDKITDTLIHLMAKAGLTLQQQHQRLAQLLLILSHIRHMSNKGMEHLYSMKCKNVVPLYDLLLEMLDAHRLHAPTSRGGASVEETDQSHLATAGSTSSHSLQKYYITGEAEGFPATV
Nature of the experiment: LexA yeast two hybrid, β-galactosidase activity assay (Example 3). In kind it is cell-based. The source says: The LexA system that we employ utilizes a bacterial DNA binding protein domain, LexA, and a bacterially derived transcriptional activation sequence, B42. Proteins or peptides of interest are fused in frame with these domains and expressed using episomal plasmids in a yeast cell. The interactions between these proteins/peptides of interest are registered by monitoring the level of the reporter gene product, β-galactosidase, by an enzymatic assay. The differences in the levels of β-galactosidase activities reflect the relative strengths of the protein interactions.
The yeast strains used in this study was EGY48 (MAT a trp1 his3 ura3 leu2::61exAops-LEU2) purchased from OriGeneTechnologies for yeast two hybrid analysis. This strain contains 6 LexA operators upstream of the LEU2 gene in the yeast genome and provides high sensitivity in detecting protein-protein interactions in the LexA two hybrid system. The plasmids used in this study were pEG202 (LexA-DNA binding domain), pJG4-5 (B42-activation domain), and the plasmid containing a β-galactosidase reporter, pJK103 (OriGene Technologies). The full length estrogen receptor was subcloned in frame into the EcoRI and XhoI sites of pJG4-5 to generate an ERα-B42 activation domain fusion. ERα was subcloned in the activation domain plasmid because ERα was able to autoactivate reporters when fused to the LexA DNA binding domain.
The peptide sequences used in this study were generated from synthetic oligos filled in by T7 Sequenase (Life Science) and subcloned into the EcoRI-XhoI sites of pEG202. The synthetic oligos were: [formula] [formula] [formula] [formula] The complementary synthetic oligo used to generate double stranded DNA was 3'XhoPrim, 5'-[…]. Each 5'-oligo was annealed to the 3'-oligo by heating to 90 °C for 15 minutes and cooled slowly to 35 °C. T7 sequenase was added and the fill-in reaction allowed to proceed at 30 °C for 30 minutes. The reaction was terminated by heat denaturing the enzyme at 65 °C for 1 hour, restriction digests were performed and the resulting DNA fragments subcloned into pEG202 to generate peptide-LexA DNA binding domain fusions.
The culture was diluted to ~2x10^6 cells/ml in the same media and allowed to grow at 30 °C until the cultures reached a density of ~1x10^7 cells/ml (∼4 hours). The yeast cells were pelleted by centurifugation, washed with extraction buffer (60 mM Na2HPO4, 40 mMNaH2PO4, 10 mM KCl, 1 mM MgSO4, 1mM PMSF, 7 mM 2-mercaptoethanol) and suspended in 200 µl of extraction buffer. 100 µl of acid-washed glass beads were added and cells were lysed by vigorous agitation for 10 minutes at 4 °C. Cellular debris was pelleted by centrifugation and the supernatant transferred to a clean tube. 10 µg of total cellular protein was diluted into complete Z buffer (60 mM Na2HPO4, 40 mMNaH2PO4 , 10 mM KCl, 1 mM MgSO4, 7 mM 2-mercaptoethanol) to a volume of 100 µl in a 96-well microplate. 80 µg of o-nitrophenyl-β-D-pyranoside (ONPG) in 20 µl was added to each well to initiate color development.
10µg of each protein extract was assayed for β-galactosidase activity using o-nitrophenyl-b-D-pyranoside as substrate. Activity units are defied as 1000* Abs405/minutes/mg/protein.
Values are in beta-galactosidase units (MOD/min/mg)

In another experiment the target is T2, ERα (Homo sapiens, UniProt P03372).
T2 sequence (P03372 1-595): T1 sequence (P03372 1-595)
Nature of the experiment: Disruption of ER mediated transcriptional activity, C3-Luc reporter in HepG2 cells (Example 4.4). In kind it is cell-based. To be noted: Gal4-peptide fusion; for block of the partial agonist activity of tamoxifen: 4-OH tamoxifen activated ER; for inhibition of the ability of estradiol to activate transcription: estradiol (10 nM) activated ER. The source says: Then HepG2 cells were transfected as above except that expression vectors for Gal4-peptide fusions were included as indicated in 10B. […] Increasing amounts of input plasmid for each Gal4-peptide fusion is also shown with the resulting transcriptional activity presented as % activation of control.

Turning to SSLTSRDFGSWYASR [α II], the “Peptide Interactions with ER Alpha, beta-galactosidase units, value” (from here on “Peptide Interactions with ER Alpha”) in experiment [1] (4-hydroxy Tamoxifen) is 20100 MOD/min/mg; in experiment [1] (Estradiol), 30983 MOD/min/mg; in experiment [1] (No Addition), 1224 MOD/min/mg; in experiment [1] (Tamoxifen Citrate), 8933 MOD/min/mg. Further, the “block of the partial agonist activity of tamoxifen” value (“block … of tamoxifen” for short) in the experiment with ERα is listed as “efficiently block”. Besides, the “inhibition of the ability of estradiol to activate transcription” value with ERα is on record as “up to 50%”.

For SSPGSREWFKDMLSR [α/β V], the “Peptide Interactions with ER Alpha” value stood at 4128 MOD/min/mg in experiment [1] (4-hydroxy Tamoxifen), 648 MOD/min/mg in experiment [1] (Estradiol), 548 MOD/min/mg in experiment [1] (No Addition) and 1005 MOD/min/mg in experiment [1] (Tamoxifen Citrate). The “block … of tamoxifen” value in the experiment with ERα is “efficiently block”. Besides, the “block of estradiol mediated transcription” value in the experiment with ERα was “inability”.

Turning to SSWDMHQFFWEGVSR [α/β III], the “Peptide Interactions with ER Alpha” value in experiment [1] (4-hydroxy Tamoxifen) stood at 3194 MOD/min/mg; in experiment [1] (Estradiol), 605 MOD/min/mg; in experiment [1] (No Addition), 381 MOD/min/mg; in experiment [1] (Tamoxifen Citrate), 600 MOD/min/mg. Moreover, in the experiment with ERα, the “block … of tamoxifen” value is “efficiently block”. Besides, the “block of estradiol mediated transcription” value in the experiment with ERα is on record as “inability”.

On to SSNHQSSRLIELLSR [α/β I], for which, in the experiment with ERα, the “block … of tamoxifen” value was “is not” and the “inhibition of the ability of estradiol to activate transcription” value is “up to 50%”.

The values are drawn from patent EP1073891B1, “METHOD OF PREDICTING RECEPTOR MODULATING ACTIVITY” (Duke University, priority 1998, dated 1999).
